The values that follow come from the nanobody polyreactivity screen of Harvey et al. (2022).

This data set is described as follows: yeast display, Sf9 membrane polyspecificity reagent, FACS + sequencing; frameworks hold sequencing errors. The essentials:
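A synthetic nanobody library was expressed on Saccharomyces cerevisiae BJ5465 by galactose induction for 36–48 hours. The library was stained for 1 hour at 4 °C with 10% biotinylated, detergent-solubilized Sf9 membrane reagent and enriched with streptavidin microbeads before FACS. Low and high (top ~1%) gates were set on anti-HA fluorescence for expression and streptavidin fluorescence for reagent binding, and each polyreactivity label reflects the gate of origin.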
“QVQLVESGGGLVQAGGSLRLSCAASGITLYEYAMGWYRQAPGKERELVAAISTSGGRTRYADSVKGRFTISRDNAKNTVYLQMNSLKPEDTAVYYCAASGFVQISNPRRDYWGQGTQVTVSS”: the “polyreactivity (PSR sort gate)” value is listed as “high polyreactivity”.

With “QVQLVESGGGLVQAGGSLRLSCAASGITLYNYAMGWYRQAPGTERELVAAISLSGGRTYYADSVKGRFTISRDNAKNTVYLQMNSLKPEDTAVYYCAADWLNSDPYNYWGQGTQVTVSS”, the “polyreactivity (PSR sort gate)” value was “low polyreactivity”.

Consider “QVQLVESGGGLVQAGGSLRLSCAASGITLYRNVMGWYRQAPGKERELVADISGRGTSTYYADSVKGRFTISRDNAKNTVYLQIHSLKPEDNAVYYCKGEVYLVVYPGLYYYDIYDYWGQGTQVTVSS”, for which the “polyreactivity (PSR sort gate)” value is “low polyreactivity”.

For “QVQLVESGGGLVQAGGSLRLSCAASGITLYRYAMGWYRHAPGKERELVAAISWSGGSTYYADSVKGRFTISRDNAKNTVYLQMNSLKPEDTAVYYCAADDYKDEHDYWGQGTQVTVSS”, the “polyreactivity (PSR sort gate)” value was “high polyreactivity”.

On to “QVQLVESGGGLVQAGGSLRLSCAASGITLYYYVMGWYRQAPGKERELVAAISWNSGRTYYADSVKGRFTISRDNAKNTVYLQMNSLKPEDTAVYYCAARPPVRLTYRYSYDYWGQGTQVTVSS”, for which the “polyreactivity (PSR sort gate)” value is given as “high polyreactivity”.

As for “QVQLVESGGGLVQAGGSLRLSCAASGITPDYAMGWYRQAPGKERELVAAITWSGGRTYYADSVKGRFTISRDNAKNTVYLQMNSLKPEDTAVYYCAAEHYLGYDYWGQGTQVTVSS”, the “polyreactivity (PSR sort gate)” value is recorded as “low polyreactivity”.

As to “QVQLVESGGGLVQAGGSLRLSCAASGITSGHNAMGWYRQAPGKERELVADIRTGDSTNYADSVKGRFTISRDNAKNTVYLQMNSLKPEDTAVYYCAADSAYDVTSYGYWGQGTQVTVSS”, the “polyreactivity (PSR sort gate)” value was “low polyreactivity”.

On to “QVQLVESGGGLVQAGGSLRLSCAASGITSGTYAMGWYRQAPGKERELVAAISSSGGRTYYADSVKGRFTISRDNAKNTVYLQMTSLKPEDTAVSYCAAETDTTYAFYWGQGTQVNVSS”, for which the “polyreactivity (PSR sort gate)” value is reported as “high polyreactivity”.

For “QVQLVESGGGLVQAGGSLRLSCAASGITSPYAMGWYRQAPGKERELVAAISWSGSSTYYADSVKGRFTISRDNAKYTVYLQMNSLNPEDTAVYYCATLVSASRSRRFGYEYWGQGSQVTVSS”, the “polyreactivity (PSR sort gate)” value was “high polyreactivity”.

For the sequence “QVQLVESGGGLVQAGGSLRLSCAASGITSSIYAMGWDRQAPGKERELVAVSTTSGGSTYYADSVKGRYTISRDNAKNTVYLQMNSLKPEDTAVYYCAADSYFYLDLLEDYWGQGTKVTVSS”, the “polyreactivity (PSR sort gate)” value was “low polyreactivity”.

For “QVQLVESGGGLVQAGGSLRLSCAASGITSSYAMGWYRQAPGKERELVAAISRGGSTYYADSVKGRFTISRDNAKNTVYLQMNSLKPEDTAVYYCNKRRYPYGWGQGTQVTVSS”, the “polyreactivity (PSR sort gate)” value is reported as “high polyreactivity”.

As to “QVQLVESGGGLVQAGGSLRLSCAASGITSTYYAMGWYRQAPGKERELVAAISVSGGSTYYADSVKGRFTISRDNAKNTVYLQMNSLKPEDTAVYYCTADSYHTYYYWYDYWGQGTQVTVSS”, the “polyreactivity (PSR sort gate)” value is given as “low polyreactivity”.

As for “QVQLVESGGGLVQAGGSLRLSCAASGITVKLYPMGWYRQAPGKETELVATINRGSSTYYADSVKGRFTISRDNAKNTVYLLMNSLKPEDTAVYYCAARLIGAGLLIYDYWGQGTQVTVSS”, the “polyreactivity (PSR sort gate)” value is “high polyreactivity”.

Regarding “QVQLVESGGGLVQAGGSLRLSCAASGITVRLYAMGWYRQAPGKERELVATIDWSGDSTYYADSVKGRFTISRDNAKNTVYLQMHSLKPEDTAVYYCNAVYVPVGINLGEYDYWGQGTQVTVSS”, the “polyreactivity (PSR sort gate)” value was “low polyreactivity”.

“QVQLVESGGGLVQAGGSLRLSCAASGITYRGYAMGWYRQAPGKERELVAAISSGGSTSYADSLKGRFTISRDNAKNTVYLQMNSLKPEDTAVYYCAKDDERKQGQYPPYDSWGQGTQVTVSS”: the “polyreactivity (PSR sort gate)” value is reported as “low polyreactivity”.

As to “QVQLVESGGGLVQAGGSLRLSCAASGITYRPYAMGWYRQTPGKERELVASISRGGSTYYADSVKGRFTISRDNAKNTVYLQMNSLKPEDTAVYYCAAYFAWRYDYWGQGTQVTVSS”, the “polyreactivity (PSR sort gate)” value was “high polyreactivity”.

With “QVQLVESGGGLVQAGGSLRLSCAASGITYSYNAMGWSRQAPGKERELVAAISSNSDSTYFADSVMGRFTISRDNAKNTVYLQMNSLKPEDTAVYYCAADTPDAAVYSGFYYWGQGTQVTVSS”, the “polyreactivity (PSR sort gate)” value was “low polyreactivity”.

Turning to “QVQLVESGGGLVQAGGSLRLSCAASGIYAYVMGWYRQAPGTERELVAAISGTGGRTYYADSVKGRFTISRDNAKNTVYLQMNSLKPEDTAVYYCAARVKYTRYQSILDYYYWGQGTQVTVSS”, the “polyreactivity (PSR sort gate)” value was “high polyreactivity”.

Turning to “QVQLVESGGGLVQAGGSLRLSCAASGIYINAMGWYRQAPGKERELVAAISRGGSTYYADSVKGRFTISRDNAKNTVYLQMNSLKPEDTAVYYCAKLIGRWRLYHTFVKGDYWGQGTQVTVSS”, the “polyreactivity (PSR sort gate)” value is recorded as “high polyreactivity”.

Regarding “QVQLVESGGGLVQAGGSLRLSCAASGKPMGWYRQAPGKERELVAAITYGGTTTYYADSVKGRFTISRDNAKNTVYLQMNSQKPEDTAVYYCAADYVFVATPLRYDYWGQGTQVTVSS”, the “polyreactivity (PSR sort gate)” value is recorded as “low polyreactivity”.

For the sequence “QVQLVESGGGLVQAGGSLRLSCAASGKTFVTYAMGWYRQAPGKERELVATISSSGGSTYYADSVKGRFTISRDNAKNTVYLQMNSLKPEDTAVYYCAKQAWAYALYTNFYSGDYGYWGQGTQVTVSS”, the “polyreactivity (PSR sort gate)” value is listed as “low polyreactivity”.

“QVQLVESGGGLVQAGGSLRLSCAASGLFARNAMGWYRQAPGKERELVAAINRSGGSTYYADSVKGRFTISRDNAKNTVYLQMNSLKPEDTAVYYCNKAFTHTKYLSPIAYEYGYWGQGTQVTVSS”: the “polyreactivity (PSR sort gate)” value is “low polyreactivity”.

Consider “QVQLVESGGGLVQAGGSLRLSCAASGLIFADYTMGWYRQAPGKERELVAVITDGDSTYYADSVKGRFTISRDNAKNTVYLQMNSLKPEDTAVYYCAAELDGSNYTLDYWGLGTQVTVSS”, for which the “polyreactivity (PSR sort gate)” value is given as “low polyreactivity”.

“QVQLVESGGGLVQAGGSLRLSCAASGLIFAGYSMGWYRLAPGKERELVAAITWRGGRTYADSVKGRFTISRDNAKNTVYLQMNSLKPEDTAVYYCAVRRWGTSFVEDDYWGQGTQVTVSS”: the “polyreactivity (PSR sort gate)” value is “low polyreactivity”.

Turning to “QVQLVESGGGLVQAGGSLRLSCAASGLIFAPYAMGLYRQAPGKERELVAAISFRGGSTYYADSVKGRFTISRDNAKNTVYFQMNSLKPEDTAVYYSAADWLYDYGEYYYWGQGTQVTVSS”, the “polyreactivity (PSR sort gate)” value was “high polyreactivity”.

Take “QVQLVESGGGLVQAGGSLRLSCAASGLIFARNALGWYRQAPGKERELVAAISWRSGRTYYADSVKGRFTISRDNAKNTVYLQMNSLKPEDTAVYYCAATSRTSWYGYWGQGTQVTVSS”: the “polyreactivity (PSR sort gate)” value is recorded as “high polyreactivity”.

As for “QVQLVESGGGLVQAGGSLRLSCAASGLIFARNAMGWYRQSPGKERELVAAITRGGSTYYADSVKGRFTISRDNAKNTVYLQMNSLKPEDTAVYYCNADYAYNSYGYRFYYWGQGTQVTVSS”, the “polyreactivity (PSR sort gate)” value is reported as “high polyreactivity”.

Turning to “QVQLVESGGGLVQAGGSLRLSCAASGLIFAVYAMGWYRQAPGKERELVAGISASAASTYYADSVKGRFTISRDNAKNTVYLQMNSLKPEDTAVYYCVAVLPARGYYWGQGTQVTVSS”, the “polyreactivity (PSR sort gate)” value was “high polyreactivity”.

For “QVQLVESGGGLVQAGGSLRLSCAASGLIFDDYAMGWYRQAPGKERELVAAISWSDGTTYYADSVKGRFTISRDNAKNTVYLQMNSLKPEDTAVYYCAAEEVSGWEYDYWGQGTQVTVSS”, the “polyreactivity (PSR sort gate)” value is on record as “high polyreactivity”.

As for “QVQLVESGGGLVQAGGSLRLSCAASGLIFDGYAMGWYRQAPGKERELVAAISRSGSRTYYADSVKGRFTISRDNAKNTVYLQMNSLKPEDTAVYYCAADAYNYPELDYWGQGTQVTVSS”, the “polyreactivity (PSR sort gate)” value is recorded as “high polyreactivity”.

Turning to “QVQLVESGGGLVQAGGSLRLSCAASGLIFDKYAMGWYRQAPGKERELVAAITRSSGTTYYADSVKGRFTISRDNAKNTVYLQMNSLKPEETAVYYCAARFIWGYWGVGSYYWGQATQVTVSS”, the “polyreactivity (PSR sort gate)” value is on record as “low polyreactivity”.

For “QVQLVESGGGLVQAGGSLRLSCAASGLIFDRSAMGWYRPAPGKERELDAASRWTGASSTYYADSVKGRFTISRDNAKNTVYLQMNSLKPEDTAVYYCNADSPYSFATGPYVLDSDYWGQGTQVTVSS”, the “polyreactivity (PSR sort gate)” value is reported as “low polyreactivity”.

For “QVQLVESGGGLVQAGGSLRLSCAASGLIFDVNTMGWYRQAPGKERELVAAITGSGGRTYYADSVKGRFTISRDNGKNTVYLQMNSLKPEDTAFYYCNADTSYVGFDYWGQGTQVTVSS”, the “polyreactivity (PSR sort gate)” value is “low polyreactivity”.

Regarding “QVQLVESGGGLVQAGGSLRLSCAASGLIFDVYAMGWYRQAPGKERELVAVISRGGSTNYADSVKGRFTISRDNANNTVYLQMNSLKPEDTAVYYCAAGLVVSYPQNNYSVSFYARGYWGQGTQVTVSS”, the “polyreactivity (PSR sort gate)” value is recorded as “high polyreactivity”.

For “QVQLVESGGGLVQAGGSLRLSCAASGLIFDYYGMGWYRQAPGKEREFVAAINRSGGTTYYADSVKGRFTISRDNAKNTVYLQMNSLKPEDTAVYYCNADRGPAKLVYDPVIMDYWGQGTQVTVSS”, the “polyreactivity (PSR sort gate)” value was “low polyreactivity”.

For “QVQLVESGGGLVQAGGSLRLSCAASGLIFEVNVMGWYRQAPGTERELVAAITTGGGSTYYADSVKGRFTISRDNAKNTVYLQMNSLKPEDTAVYYCATDYSSYLYDYYTGVGGYEYWGQGTQVTVSS”, the “polyreactivity (PSR sort gate)” value is “low polyreactivity”.

As for “QVQLVESGGGLVQAGGSLRLSCAASGLIFFSYAMGWYRQAPGKERELVAAISRRGGRTYYADSVKGRFTISRDNAKNTVYLQMNSLKPEDTAVYYCAADSGYVWYADDYWGQGTQVTVSS”, the “polyreactivity (PSR sort gate)” value is listed as “low polyreactivity”.

As to “QVQLVESGGGLVQAGGSLRLSCAASGLIFGGYAMGWYRQAPGKERELVAAISSSGGRTYYADSVKGRFTISRDNAKNTVYLQMNSLKPEDTAVYYCATRVHYRNDYWGQGTQVTVSS”, the “polyreactivity (PSR sort gate)” value is on record as “high polyreactivity”.

Regarding “QVQLVESGGGLVQAGGSLRLSCAASGLIFGKNAMGWYRQAPGKERELVAAISSGDSTYADSVKGRFTISRDNAKNTVYLQMNSLKPEDTAVYYCNAEVLRESYDRHPTTDYYWGQGTQVTVSS”, the “polyreactivity (PSR sort gate)” value is listed as “low polyreactivity”.

Take “QVQLVESGGGLVQAGGSLRLSCAASGLIFGPNAMGWYRQAPGKERELVAAITKSGDSTYYADSVKGRFTISRDNAKNTVYFQMNSLKPEDTAVYYCAADTTTGLYDYWGQGTQVTVSS”: the “polyreactivity (PSR sort gate)” value is “low polyreactivity”.

In the case of “QVQLVESGGGLVQAGGSLRLSCAASGLIFGPYAMGWYRQAPGKERELLAASWRGGSTYYADSVKGRFTISRDNAKNTVFLQMNSLKPEDTAVYYCAADVIYSLYYYWGQGTQVTVSS”, the “polyreactivity (PSR sort gate)” value is reported as “low polyreactivity”.
